Data: patent US7001748B2, “Methods of making polyketides using hybrid polyketide synthases” (The Board of Trustees of the Leland Stanford Junior …, priority 1999, dated 2006)

Target: T1, (5)M2+TE (Saccharopolyspora erythraea, UniProt Q03131+Q03133)
T1 construct: a single module of the DEBS PKS fused to the thioesterase (TE) termination region of module 6; made in house; host or cells: E. coli BL21(DE3); ACP4(4) from pNW8 (pET28a), phosphopantetheinylated in vitro with Sfp
Experiment: Labeling of holo-ACP4(4) with 14C-2a mediated by (5)M2+TE (back-transfer)
Assay type: biochemical
Conditions: presence and absence of (5)M2+TE
Procedure: Labeling of Holo-ACP4(4) with ^14C-2a Mediated by (5)M2+TE. Holo-ACP4(4) (20 μM) was incubated with 1 mM [1-^14C]-labeled 2a (custom synthesized by Amersham Pharmacia, specific activity 55 mCi/mmol) and 1 μM (5)M2+TE in reaction buffer C for 10 min at 30° C. The protein was precipitated with 75% acetone/H2O for 5 min at −80° C. After washing the pellet with 6.25% (w/v) TCA to remove excess salts followed by 500 μL of 75% acetone/H2O to remove residual, unbound 14 C-2a, the precipitated protein was resuspended in 8 μL of buffer A and 4 μL of SDS sample buffer, and resolved on a 4-20% SDS-PAGE gradient gel (Bio-Rad). The proteins were visualized with Coomassie blue stain and dried, and the radioactivity was detected either on a Packard InstantImager or by exposing the gel to X-ray film.

B1: holo-ACP4(4): DEBS ACP4 catalytic domain with its natural C-terminal linker, phosphopantetheinylated (protein)
chain: HHHHHHNVVDRLAGRSESDQVAGLAELVRSHAAAVSGYGSADQLPERKAFKDLGFDSLAAVELRNRLGTATGVRLPSTLVFDHPTPLAVAEHLRDRLFAASPAVDIGDRLDELEKALEALSAEDGHDDVGQRLESLLRRWNSRRADAPSTSAISEDASDDELFSMLDQRFGGGEDL
modifications: non-natural residues
notes: DEBS ACP4 catalytic domain with its natural C-terminal linker, phosphopantetheinylated
radiolabeling of ACP by 14C-2a: radiolabeled only in the reaction containing (5)-M2+TE
